Read-outs that look alike come from different tables or passages of the source.
Assays:
[1] = 25 day toxicology in tumor bearing male Lewis rats; format: in vivo, Lewis rat; settings: rat, in vivo
Procedure: Toxicology was assessed at 25 days in 4 groups of tumor bearing male Lewis rats (average volume […]). Rats in the first group, Cohort 1, were injected on day 1 only. Rats in second cohort were injected on days 1 and 2, while rats in the third cohort were injected on days 1, 2, and 3. Rats were injected with 2.56 μg, 0.5 μg, 0.5 μg DOTATOC, on day 1, day 2 and day 3, respectively, with a nominal activity of 3.7 MBq. Each dose was divided into 2 injections at 1 hour intervals. The rats received the following cumulative average activities per group: Cohort 1 (N=3) received 4.3±0.7 MBq, Cohort 2 (N=3) received 9.0±0.4 MBq, and Cohort 3 (N=4) received 12.6±0.3 MBq of ^213Bi-DOTATOC. Cohort 4 (N=4) was added as control group and injected twice daily with unlabelled DOTATOC on three consecutive days.
After 24 days, the animals were put into a metabolic cage to collect urine samples for creatinine clearance analysis. Creatine clearance was determined as previously described (20). After 24 hour urine collection, the animals were euthanized with halothane. For blood collection, a cardiac puncture was performed. Blood analysis consisted of hemoglobin (Hgb), hematocrit (Hct), red blood cells (RBC's), and white blood cells (WBC's) with differential, and platelets (Pt's). Additionally T4 and FSH values were assessed using the serum.
Additional groups were then designed to study the effects of the treatment on a somatostatin receptor positive tumor. The first group was designed to study the effects of treatment on large volume tumors (average volume 1720±608 mm^3). This group, Cohort 5 (N=5), received three fractionated doses of ^213Bi-DOTATOC (specific activity 7.4 MBq ^213Bi/1 μG DOTATOC) with a total average cumulative dose of 13.0±0.5 MBq of ^213Bi-DOTATOC. The last cohort, the sixth cohort (N=4), was injected with two fractionated doses, ^213Bi-DOTATOC (specific activity 7.4 MBq ^213Bi/1 μG DOTATOC) with a total average cumulative dose of 22.2±0.7 MBq of ^213Bi-DOTATOC. As described earlier, each dose was divided into 2 injections separated by a 1 hour interval. Tumor response to the treatment was assessed in all cohorts by daily tumor measurements.
(§1) Organs were harvested and immediately placed in 10% formalin for a minimum of 48 hours. Following fixation in formalin, bone samples were placed in decalcifying solution for 36 hours. Trimmed organs were sent to the TriCore Laboratories (Albuquerque, N. Mex.) where they were embedded in paraffin, sectioned, and stained with Hematoxylin and Eosin (H and E). Histopathologic evaluation was performed by a board certified veterinary pathologist (DFK) who examined the following organs of each animal: heart, lung, kidneys, testicles, spleen, pancreas, pituitary bone marrow, urinary bladder, adrenals, and two different sections of the liver.
(§2) Sections of both the right and left kidneys were examined to determine nephrotoxicity in all cohorts. Bone marrow was examined to evaluate hypoplasia and other lesions in Cohorts 3 and 4. Interstitial nephritis and bone marrow were scored as follows: 0 no lesions, 1 minimal lesions, 2 mild lesions, 3 moderate lesions, and 4 severe lesions.
(§3) For the pathology scoring, to evaluate nephrotoxicity on the 6 treatment groups, a frequency analysis was performed in StatXact-5 using the Jonckheere-Terpstra Test. For all other data, graphs and calculations were performed in SigmaStat®-3 and SigmaPlot®-9 as well as Graph Pad Prism®-4 using the t-test. For all statistical tests results were considered significant when p<0.05. Animal biodistribution and tumor volume data are expressed as the average, plus or minus the SEM.

[2] = Biodistribution in tumor bearing and non-tumor bearing rats; settings: rat, in vivo, total radioactivity
[3] = as above; settings: rat, in vivo
Procedure: FIG. 13: A, B Graphical comparisons of Tumor and Non-Tumor Bearing Rats at 1 hour post injection of ^213Bi-DOTATOC. Columns, means, Bars, SEM, white columns represent non-tumor bearing rats and black columns represent tumor bearing rats. Significance of p<0.05 is represented by a (*).
as §3

[4] = rat, in vivo
Procedure: A 26 week toxicology study was performed in 3 groups of rats. The first group, Cohort 7 (N=3), received three fractionated doses ^213Bi-DOTATOC (specific activity 7.4 MBq ^213Bi/1 μG DOTATOC with a total average cumulative dose of 12.75±1.1 MBq. The second group, Cohort 8 (N=3), received D-lysine (concentration 400 mg/mL) immediately before receiving three fractionated doses ^213Bi-DOTATOC with a specific activity 7.4 MBq ^213Bi/1 μG DOTATOC with a total average cumulative dose of 11.39±0.14 MBq. The third group, cohort 9 (N=3) received 3 fractionated doses of DOTATOC. Rats were injected with 2.56 μg, 0.5 μg, 0.5 μg DOTATOC, on day 1, day 2 and day 3, respectively. As described earlier, each dose was divided into 2 injections separated by a 1 hour interval.
as §1, §2

Q: For `C[C@@H](O)[C@@H]1NC(=O)[C@H](CCCCN)NC(=O)[C@@H](Cc2c[nH]c3ccccc23)NC(=O)[C@H](Cc2ccc(O)cc2)NC(=O)[C@@H](NC(=O)[C@@H](Cc2ccccc2)NC(=O)CN2CCN(CC(=O)O)CCN(CC(=O)O)CCN(CC(=O)O)CC2)CSSC[C@@H](C(=O)N[C@H](CO)[C@@H](C)O)NC1=O` [^213Bi-DOTATOC, metal not drawn], which “FSH values vs control animals” value [1] is on record?
A: No significant changes

Q: What about the “average histopathologic score for nephrititis” value [1] of the same compound?
A: 1

Q: And the “hematology results vs control group” value [1]?
A: did not show any significant differences

Q: What about the “histopathological examination of heart, lungs, liver, spleen, urinary bladder” value [1] of the same compound?
A: no evidence of treatment induced toxicity

Q: And the “histopathology of testes, adrenals, pancreas” value [1]?
A: No histopathologic abnormalities

Q: What about the “likelihood of interstitial nephrititis with dose” value [1] of the same compound?
A: increased with increasing dose

Q: And the nephrotoxicity with low-dose [1]?
A: minimal nephrotoxicity

Q: What about the “toxicity in the high-dose treatment cohort (kidney)” value [1] of the same compound?
A: Minimal toxicity

Q: What about the tissue uptake at 3 h ([2]; accumulation of radioactivity in the blood) of the same compound?
A: 0.02 %ID/g

Q: And the tissue uptake at 3 h ([2]; accumulation of radioactivity in the bone marrow)?
A: 0.06 ± 0.02 %ID/g

Q: What about the tissue uptake at 3 h ([2]; accumulation of radioactivity in the kidneys) of the same compound?
A: 11.2 ± 0.46 %ID/g

Q: What about the tissue uptake at 3 h ([2]; accumulation of radioactivity in the liver) of the same compound?
A: 0.14 ± 0.02 %ID/g

Q: What about the tissue uptake at 3 h ([2]; accumulation of radioactivity in the spleen) of the same compound?
A: 0.08 ± 0.01 %ID/g

Q: What about the tissue uptake at 3 h ([2]; accumulation of radioactivity in the stomach) of the same compound?
A: 0.08 ± 0.01 %ID/g

Q: What about the tissue uptake at 3 h ([2]; accumulation of radioactivity in the testis) of the same compound?
A: 0.02 %ID/g

Q: And the “localization in stomach and muscle, tumor vs non-tumor bearing rats” value [3]?
A: significantly higher

Q: And the “FSH or T4 serum values vs control animals” value [4]?
A: No significant changes

Q: And the adrenal histopathology [4]?
A: minimal nodular cortical hyperplasia in both adrenals

Q: And the “creatinine clearance vs control group (DOTATOC only)” value [4]?
A: No difference

Q: What about the “hematology results vs control group” value [4] of the same compound?
A: did not show any significant differences

Q: And the liver histopathology [4]?
A: mild or moderate cholangiohepatitis and perivasculitits

Q: What about the lung histopathology [4] of the same compound?
A: minimal to mild interstitial pneumonia

Q: What about the “microcystic degeneration in the pituitary” value [4] of the same compound?
A: mild to moderate

Q: And the microcystic pancreatic degeneration [4]?
A: mild to moderate

Q: What about the “rats with one adrenal each with nodular cortical hyperplasia” value [4] of the same compound?
A: 2 rats
